System: GINS
Experiment: Pulldown of recombinant TopBP1-BRCT0-5 by immobilised GINS, 150 mM NaCl
Format: binding
Details: for GINS binding? (rec. proteins): summary of recombinant protein interaction tests (yes/no); for GINS interaction: 100 nM TopBP1, 20 mM HEPES pH 8.0, 150 mM NaCl, 0.01% Tween-20, 45 min, 4 °C
Excerpt: Fig. 1 GINS and TopBP1 interact. a (i) Domain model of human (hs) TopBP1, its conservation with BRCT1/2 and 3/4 domains (grey boxes) of budding yeast Dpb11 (scDpb11). Arrows point to binding domains for interacting proteins. (ii) Overview of TopBP1 wild type (WT) and BRCT deletion (Δ) and point mutants. GINS binding capabilities are labelled in red and green. Numbers, amino acid position; capital letters indicate amino acid substitutions. Amino acid substitutions of point mutants in BRCT4 (B4mut) and 5 (B5mut) are coloured orange. b Elution profiles of size exclusion chromatography (Superdex200) of individual recombinant TopBP1-BRCT0-5 protein (grey) and GINS tetramers (green), or of both upon incubation (blue). c Recombinant GINS immobilised on Flag-beads and control beads (Flag peptide-coupled beads) were used to pull down recombinant TopBP1-0-5-WT or TopBP1-ΔBRCT4/5 (compare a(ii)). SDS gels were silver stained. kDa specifies molecular weight marker bands. The experiment was done more than three times with similar results. Source data are provided as a Source data file. TEXT PRINTED IN THE PICTURE: (a) BRCT0-5-WT: GINS binding? (rec. proteins): yes | (a) ΔBRCT4/5: GINS binding? (rec. proteins): no | (a) ΔBRCT3: GINS binding? (rec. proteins): yes | (a) ΔBRCT0/1/2: GINS binding? (rec. proteins): yes | (a) B5mut: GINS binding? (rec. proteins): yes | (a) B4mut: GINS binding? (rec. proteins): no
Fig. 2 Protein structure of the GINS-TopBP1-BRCT4/5 complex. a Structural model of the GINS-TopBP1-BRCT4/5 complex. Crystal structures of the GINS subunits (PDB:2E9X) (shades of green, yellow), and the central BRCT4/5 domain of TopBP1 (PDB:3UEN) (grey) were docked into the cryo-EM volume shown as transparent volume. b Zoom-in of the BRCT4-Psf1 interface. The residues in stick representation appear crucial for the interface. Mutations to break the interaction are coloured pink (Psf1-I97R) and purple (TopBP1-B4mut; compare Fig. 1a(ii)). c Pulldown of the indicated recombinant TopBP1-BRCT0-5-strep versions (see Fig. 1a(ii)) by Flag-beads-immobilised recombinant GINS or Flag peptide-coupled control beads. Analysis was done by immunoblotting. The experiment was done more than three times with similar results. d Pulldown of the indicated recombinant TopBP1-BRCT0-5-WT-strep using immobilised GINS-WT or GINS carrying a Ile97 to arginine mutation in Psf1.TopBP1-Gcc/B4mut-strep (Figs. 1a(ii) and 3a) was used as a non-GINS binding control. The experiment was done twice with similar results. Source data are provided as a Source data file.
Fig. 3 The conserved core of the TopBP1-GINI domain is required for a stable interaction with GINS. a Domain model and T-COFFEE alignment (one-letter aa code) of TopBP1 proteins from humans (Q92547) Xenopus laevis (Q7ZZY3), Bos taurus (A0A3Q1LWE4) and Rattus norvegicus (A0A8I6GFZ6). Coloured boxes indicate GINI region mutants in sub-regions I (blue), II (green) and III (orange), and in the GINI core helix (red) (details in Supplementary Fig. 7). Amino acid substitutions, names of GINI core region mutations and corresponding GINS binding capabilities are shown. ., : and * indicate low conservation, high conservation and identical amino acids, respectively. b/c Pulldown of recombinant TopBP1-BRCT0-5-strep-WT or the indicated GINI region mutants (a) by bead-immobilised GINS or Flag peptide-coupled control beads. Analysis was done by immunoblotting. The experiments were done more than three times with similar results. Source data are provided as a Source data file. d Fluorescence polarisation measurements including dissociation constants (kD) calculations using recombinant GINS tetramer and fluorescently labelled TopBP1-GINI-core peptides (WT or Gpp (a)). For each peptide n = 3 independent experiments and data are presented as mean values +/−SEM. TEXT PRINTED IN THE PICTURE: (a) TopBP1-Gcc: GINS binding? (rec. proteins): no | (a) TopBP1-Gcore: GINS binding? […]

Molecule	GINS binding? (rec. proteins)	GINS interaction
TopBP1-BRCT0-5-WT: recombinant TopBP1 amino acids 1–766, strep-tagged (protein, left off: Strep, C-terminal, kept, recombinant TopBP1 amino acids 1–766, strep-tagged) MSRNDKEPFFVKFLKSSDNSKCFFKALESIKEFQSEEYLQIITEEEALKIKENDRSLYICDPFSGVVFDHLKKLGCRIVGPQVVIFCMHHQRCVPRAEHPVYNMVMSDVTISCTSLEKEKREEVHKYVQMMGGRVYRDLNVSVTHLIAGEVGSKKYLVAANLKKPILLPSWIKTLWEKSQEKKITRYTDINMEDFKCPIFLGCIICVTGLCGLDRKEVQQLTVKHGGQYMGQLKMNECTHLIVQEPKGQKYECAKRWNVHCVTTQWFFDSIEKGFCQDESIYKTEPRPEAKTMPNSSTPTSQINTIDSRTLSDVSNISNINASCVSESICNSLNSKLEPTLENLENLDVSAFQAPEDLLDGCRIYLCGFSGRKLDKLRRLINSGGGVRFNQLNEDVTHVIVGDYDDELKQFWNKSAHRPHVVGAKWLLECFSKGYMLSEEPYIHANYQPVEIPVSHKPESKAALLKKKNSSFSKKDFAPSEKHEQADEDLLSQYENGSSTVVEAKTSEARPFNDSTHAEPLNDSTHISLQEENQSSVSHCVPDVSTITEEGLFSQKSFLVLGFSNENESNIANIIKENAGKIMSLLSRTVADYAVVPLLGCEVEATVGEVVTNTWLVTCIDYQTLFDPKSNPLFTPVPVMTGMTPLEDCVISFSQCAGAEKESLTFLANLLGASVQEYFVRKSNAKKGMFASTHLILKERGGSKYEAAKKWNLPAVTIAWLLETARTGKRADESHFLIENSTKEERSLETEITNGINLNSDTAEHP	yes	–
TopBP1-Gpp: TopBP1-BRCT0-5, central leucine-leucine motif mutated to two consecutive prolines (protein, left off: Strep, C-terminal, kept, TopBP1-BRCT0-5, central leucine-leucine motif mutated to two consecutive prolines) MSRNDKEPFFVKFLKSSDNSKCFFKALESIKEFQSEEYLQIITEEEALKIKENDRSLYICDPFSGVVFDHLKKLGCRIVGPQVVIFCMHHQRCVPRAEHPVYNMVMSDVTISCTSLEKEKREEVHKYVQMMGGRVYRDLNVSVTHLIAGEVGSKKYLVAANLKKPILLPSWIKTLWEKSQEKKITRYTDINMEDFKCPIFLGCIICVTGLCGLDRKEVQQLTVKHGGQYMGQLKMNECTHLIVQEPKGQKYECAKRWNVHCVTTQWFFDSIEKGFCQDESIYKTEPRPEAKTMPNSSTPTSQINTIDSRTLSDVSNISNINASCVSESICNSLNSKLEPTLENLENLDVSAFQAPEDLLDGCRIYLCGFSGRKLDKLRRLINSGGGVRFNQLNEDVTHVIVGDYDDELKQFWNKSAHRPHVVGAKWLLECFSKGYMLSEEPYIHANYQPVEIPVSHKPESKAALLKKKNSSFSKKDFAPSEKHEQADEDPPSQYENGSSTVVEAKTSEARPFNDSTHAEPLNDSTHISLQEENQSSVSHCVPDVSTITEEGLFSQKSFLVLGFSNENESNIANIIKENAGKIMSLLSRTVADYAVVPLLGCEVEATVGEVVTNTWLVTCIDYQTLFDPKSNPLFTPVPVMTGMTPLEDCVISFSQCAGAEKESLTFLANLLGASVQEYFVRKSNAKKGMFASTHLILKERGGSKYEAAKKWNLPAVTIAWLLETARTGKRADESHFLIENSTKEERSLETEITNGINLNSDTAEHP	no	strongly compromised
TopBP1-B4mut: Val590, Thr606 and Val610 mutated to glutamate, arginine and glutamate (protein, left off: Strep, C-terminal, kept) MSRNDKEPFFVKFLKSSDNSKCFFKALESIKEFQSEEYLQIITEEEALKIKENDRSLYICDPFSGVVFDHLKKLGCRIVGPQVVIFCMHHQRCVPRAEHPVYNMVMSDVTISCTSLEKEKREEVHKYVQMMGGRVYRDLNVSVTHLIAGEVGSKKYLVAANLKKPILLPSWIKTLWEKSQEKKITRYTDINMEDFKCPIFLGCIICVTGLCGLDRKEVQQLTVKHGGQYMGQLKMNECTHLIVQEPKGQKYECAKRWNVHCVTTQWFFDSIEKGFCQDESIYKTEPRPEAKTMPNSSTPTSQINTIDSRTLSDVSNISNINASCVSESICNSLNSKLEPTLENLENLDVSAFQAPEDLLDGCRIYLCGFSGRKLDKLRRLINSGGGVRFNQLNEDVTHVIVGDYDDELKQFWNKSAHRPHVVGAKWLLECFSKGYMLSEEPYIHANYQPVEIPVSHKPESKAALLKKKNSSFSKKDFAPSEKHEQADEDLLSQYENGSSTVVEAKTSEARPFNDSTHAEPLNDSTHISLQEENQSSVSHCVPDVSTITEEGLFSQKSFLVLGFSNENESNIANIIKENAGKIMSLLSRTEADYAVVPLLGCEVEARVGEEVTNTWLVTCIDYQTLFDPKSNPLFTPVPVMTGMTPLEDCVISFSQCAGAEKESLTFLANLLGASVQEYFVRKSNAKKGMFASTHLILKERGGSKYEAAKKWNLPAVTIAWLLETARTGKRADESHFLIENSTKEERSLETEITNGINLNSDTAEHP	no	strongly compromised in its ability to bind GINS
